Substrate in data set [1]: OCc1ccccc1O[C@@H]1O[C@H](CO)[C@@H](O)[C@H](O)[C@H]1O
The data set can be described thus: DNS reducing sugar assay, Michaelis-Menten / Lineweaver-Burk fit. It counts as biochemical, Paenibacillus polymyxa. As to conditions: 50 °C, pH 7.0, bacterial supernatant. The source says: DNS reducing sugar assay, Michaelis-Menten / Lineweaver-Burk fit on BglB

Substrate in data set [2]: OCc1ccccc1O[C@@H]1O[C@H](CO)[C@@H](O)[C@H](O)[C@H]1O
Described as above. The data set is classed as biochemical, Paenibacillus polymyxa. To be noted: 50 °C, pH 7.0, bacterial supernatant. The source says:
DNS reducing sugar assay, Michaelis-Menten / Lineweaver-Burk fit on BglA
The source holds these as a separate data set.

B1: BglB (Paenibacillus polymyxa) (protein)
chain: NTFIFPATFMWGTSTSSYQIEGGTDEGGRTPSIWDTFCQIPGKVIGGDCGDVACDHFHHFKEDVQLMKQLGFLHYRFSVAWPRIMPAAGIINEEGLLFYEHLLDEIELAGLIPMLTLYHWDLPQWIEDEGGWTQRETIQHFKTYASVIMDRFGERINWWNTINEPYCASILGYGTGEHAPGHENWREAFTAAHHILMCHGIASNLHKEKGLTGKIGITLNMEHVDAASERPEDVAAAIRRDGFINRWFAEPLFNGKYPEDMVEWYGTYLNGLDFVQPGDMELIQQPGDFLGINYYTRSIIRSTNDASLLQVEQVHMEEPVTDMGWEIHPESFYKLLTRIEKDFSKGLPILITENGAAMRDELVNGQIEDTGRHGYIEEHLKACHRFIEEGGQLKGYFVWSFLDNFEWAWGYSKRFGIVHINYETQERTPKQSALWFKQMMAKNGF
notes: amplified from yak rumen metagenomic DNA; usp45 signal peptide, pMG36e, secreted by L. lactis NZ9000; about 55 kDa; gene 1361 bp; supernatant / TCA-acetone precipitate
For the protein B1, in data set [1], the Km (as a rule, the concentration of substrate that gives half-maximal velocity) was 43.99 µM; the Vmax (commonly the rate approached at saturating substrate) stood at 1250 µmol/min/mg; the kcat (in general, the number of substrate molecules converted per active site and unit of time at saturation) came out at 349 s⁻¹; the kcat/Km (as a rule, the turnover number divided by the Michaelis constant) is 7.93e+06 M⁻¹ s⁻¹.

B2: BglA (Paenibacillus polymyxa) (protein)
chain: MTIFQFPQDFMWGTATAAYQIEGAYQEDGRGLSIWDTFAHTPGKVFNGDNGNVACDSYHRYEEDIRLMKELGIRTYRFSVSWPRIFPNGDGEVNQEGLDYYHRVVDLLNDNGIEPFCTLYHWDLPQALQDAGGWGNRRTIQAFVQFAETMFREFHGKIQHWLTFNEPWCIAFLSNMLGVHAPGLTNLQTAIDVGHHLLVAHGLSVRRFRELGTSGQIGIAPNVSWAVPYSTSEEDKAACARTISLHSDWFLQPIYQGSYPQFLVDWFAEQGATVPIQDGDMDIIGEPIDMIGINYYSMSVNRFNPEAGFLQSEEINMGLPVTDIGWPVESRGLYEVLHYLQKYGNIDIYITENGACINDEVVNGKVQDDRRISYMQQHLVQVHRTIHDGLHVKGYMAWSLLDNFEWAEGYNMRFGMIHVDFRTQVRTPKESYYWYRNVVSNNWLETRR
notes: as for B1
Take B2: in data set [2], the Km was 38.61 µM, the Vmax came to 1340 µmol/min/mg, the turnover number (kcat) turned out to be 435 s⁻¹ and the kcat/Km was 1.13e+07 M⁻¹ s⁻¹.

Source of the values: publication PMC10305218, “Expression of β-Glucosidases from the Yak Rumen in Lactic Acid Bacteria: A Genetic Engineering Approach” (Microorganisms, 2023).
